Results from IntAct's records for PubMed 11250154.

B1: Virulence protein F (Agrobacterium tumefaciens (strain 15955)), P15597 (parent)
chain: MRNSSLRDASGSNDAQVPHKTELLNLPDHVLTEVAKRLATNNPVESAENIANFSKSHRFTRDAVRTEPLEKFSSRLKILSRNAKLLSHAVRHAATLPDGEQLSEAQLSQMRSEVATRPVLGVAYTHQDGQPEERLSGNHLDHKINNIPNLVFNVAEPIMFNEISALEVMAEVRPIARSIKTAHDDARAELMSADRPRSTRGL

Variants of: B1
Settings: with skp1a_arath SKP1A

Variant | effect of a mutation on the interaction
MRNSSLRDASGSNDAQVPHKTELLNAADHVLTEVAKRLATNNPVESAENIANFSKSHRFTRDAVRTEPLEKFSSRLKILSRNAKLLSHAVRHAATLPDGEQLSEAQLSQMRSEVATRPVLGVAYTHQDGQPEERLSGNHLDHKINNIPNLVFNVAEPIMFNEISALEVMAEVRPIARSIKTAHDDARAELMSADRPRSTRGL [L26A;P27A] | decreasing interaction strength

Variants of: B1
Settings: with skp1b_arath SKP1B

Variant | effect of a mutation on the interaction
MRNSSLRDASGSNDAQVPHKTELLNAADHVLTEVAKRLATNNPVESAENIANFSKSHRFTRDAVRTEPLEKFSSRLKILSRNAKLLSHAVRHAATLPDGEQLSEAQLSQMRSEVATRPVLGVAYTHQDGQPEERLSGNHLDHKINNIPNLVFNVAEPIMFNEISALEVMAEVRPIARSIKTAHDDARAELMSADRPRSTRGL [L26A;P27A] | decreasing interaction strength
